Results published in article PMC3911951, “Crystal Structure of Arginine Methyltransferase 6 from Trypanosoma brucei” (PLoS ONE, 2014).

Legend:
[1] = biological target: Trypanosoma brucei arginine methyltransferase 6 (TbPRMT6), SAH-bound (Trypanosoma brucei); assay: ITC; AcH4-21 peptide (3 mM) injected into TbPRMT6 (100 uM) bound to SAH; MicroCal iTC200, 25 °C; 30 mM Tris pH 8.0, 100 mM NaCl, 1 mM EDTA; one-binding-site model
[2] = biological target: Trypanosoma brucei arginine methyltransferase 6 (TbPRMT6) (Trypanosoma brucei); assay: SAXS; FL-TbPRMT6 at 1.0, 3.0 and 5.0 mg/ml in 30 mM Tris pH 8.0, 200 mM NaCl, 1 mM EDTA; molecular mass by SAXSMOW
[3] = biological target: Trypanosoma brucei arginine methyltransferase 6 (TbPRMT6) (Trypanosoma brucei); assay: ITC; 3 mM AcH4-21 peptide injected into 100 µM TbPRMT6 with SAH bound; 25°C; 30 mM Tris pH 8.0, 100 mM NaCl, 1 mM EDTA; one-binding-site model

Work on “AcH4-21, peptide corresponding to the first 21 residues of bovine histone H4” yielded a stoichiometry N [1] of 1.79.
In the case of “Trypanosoma brucei arginine methyltransferase 6 (TbPRMT6) (enzyme)”, the stoichiometry N [2] is reported as 2.
In the case of “peptide corresponding to the first 21 residues of bovine histone H4 (AcH4-21)”, the Kd [3] is reported as 45 µM.
